In one series the target is PilB (Pseudomonas aeruginosa, UniProt P22608). The note with it: 1 mM ATP; minimal activity.
The next series addresses T1, FimX (Pseudomonas aeruginosa, UniProt Q9HUK6).
T1 construct: dimer in solution (ca. 150 kDa by SEC)
The series can be described thus: surface plasmon resonance (BIAcore T100), FimX immobilized on CM5 chip. It is filed as binding. (In SPR one partner is held on a chip, and binding of the other changes the refractive index at the surface.)

Series [1] deals with the molecule itself. Briefly: SEC; preparative SEC after affinity purification; Superdex 200 Increase, 25 mM Tris pH 8.0, 250 mM NaCl, 5 mM MgCl2, 5 mM β-mercaptoethanol. (In gel filtration, larger molecules generally elute earlier.)
Series [2] concerns the molecule itself. Briefly: SEC; Superdex 200 10/300; 50 μM hexameric PilB and 50 μM dimeric FimX or FimX(AAA), 30 min at RT, 25 mM Tris pH 8, 150 mM NaCl, 5 mM MgCl2, 500 μM c-di-GMP; each protein also run alone; fractions on SDS-PAGE.

Regarding `Nc1ncnc2c1ncn2[C@@H]1O[C@H](COP(=O)(O)OP(=O)(O)OP(=O)(O)O)[C@@H](O)[C@H]1O` [ATP], the ATPase activity result at PilB is “PilB shows minimal ATPase activity in vitro that is not altered by addition of FimX”.
One may read the Kd as the equilibrium constant for the complex coming apart. As to `Nc1nc2c(ncn2[C@@H]2O[C@@H]3CO[P@](=O)(O)O[C@H]4[C@@H](O)[C@H](n5cnc6c(=O)[nH]c(N)nc65)O[C@@H]4CO[P@](=O)(O)O[C@H]3[C@H]2O)c(=O)[nH]1` [c-di-GMP], the Kd on FimX was found to be 88 ± 5.6 nM.

B1: 10XHis-MBP tagged recombinant PilT (natural protein)
chain: MDITELLAFSAKQGASDLHLSAGLPPMIRVDGDVRRINLPPLEHKQVHALIYDIMNDKQRKDFEEFLETDFSFEVPGVARFRVNAFNQNRGAGAVFRTIPSKVLTMEELGMGEVFKRVSDVPRGLVLVTGPTGSGKSTTLAAMLDYLNNTKYHHILTIEDPIEFVHESKKCLVNQREVHRDTLGFSEALRSALREDPDIILVGEMRDLETIRLALTAAETGHLVFGTLHTTSAAKTIDRVVDVFPAEEKAMVRSMLSESLQSVISQTLIKKIGGGRVAAHEIMIGTPAIRNLIREDKVAQMYSAIQTGGSLGMQTLDMCLKGLVAKGLISRENAREKAKIPENF
notes: also called hexameric PilT; source: E. coli BL21(DE3), purified (Ni-NTA, amylose resin, SEC)
As usually defined, the stoichiometry N is a count of units in the complex or per binding partner. B1: the “stoichiometry N” value in series [1] was found to be 6.

B2: 10XHis-MBP tagged recombinant PilB (natural protein)
chain: MNDSIQLSGLSRQLVQANLLDEKTAVQAQAQAQRNKLSLVTHLVQSKLVSGLALAELSAEQFGIAYCDLNSLDKESFPRDAISEKLVRQHRVIPLWRRGNKLFVGISDPANHQAINDVQFSTGLTTEAILVEDDKLGLAIDKLFESATDGLAGLDDVDLEGLDIGSADKSTQEDASAEADDAPVVRFVNKMLLDAIKGGSSDLHFEPYEKIYRVRFRTDGMLHEVAKPPIQLASRISARLKVMAGLDISERRKPQDGRIKMRVSKTKSIDFRVNTLPTLWGEKIVMRILDSSSAQMGIDALGYEEDQKELYLAALKQPQGMILVTGPTGSGKTVSLYTGLNILNTTDINISTAEDPVEINLEGINQVNVNPRQGMDFSQALRAFLRQDPDVIMVGEIRDLETAEIAIKAAQTGHMVMSTLHTNSAAETLTRLLNMGVPAFNLATSVNLIIAQRLARKLCSHCKKEHEVPRETLLHEGFPEDKIGTFKLYSPVGCDHCKNGYKGRVGIYEVVKNTPALQRIIMEEGNSIEIAEQARKEGFNDLRTSGLLKAMQGITSLEEVNRVTKD
notes: also called hexameric PilB; purified PilB; source: E. coli BL21(DE3), purified (Ni-NTA, amylose resin, SEC)
Consider B2, for which the “stoichiometry N” value in series [1] was 6.

B3: 6X-His tagged FimX (natural protein)
chain: MAIEKKTIRLLILEDSQNEAERLVSLFRNAGHATRVHRLTSPEDLAETLQQSWDLLIAAPTSECLEPGEALATLRRQSRDIPFIQLVADNSSDAITDALMLGAQDALPQGEDERLVLVANRELAGLAERRARRAAELALREAEKRCQLLLDSSVDAITYVHDGMHIYANRSYMALFGYEDAEELEGLPVIDLIASCDQGAFKDFLKGYQNDQRQTELVCTGVKLDGQEFKARISLSAATYDGEPCIQVVIRGEVDNAELEEKLREVSSQDPVTGLYNRSHFLDLMDAAVQQAVTARKPSTLAYIHLNGYPSLQADHGLSGIDLLLGQLAGLMREQFGEEADLARFGDSIFAALFKGKTPEQAQAALQRLLKKVENHLFELNGRSAQATLSIGVAGLDEKTAKAQDVMNRAHRCADDAARKGGSQIKQYNPAEELAAAAQRGDVIAILQQALETNSFRLLFQPVISLRGDSHENYEVLLRLLNPQGQEVPPAEFLHAAKEAGLAEKIDRWVILNSIKLLAEHRAKGHQTKLFVHLSSASLQDPGLLPWLGVALKAARLPPESLVFQISEADATSYLKQAKQLTQGLATLHCQAAISQFGCSLNPFNALKHLTVQFIKIDGSFVQDLNQVENQEILKGLIAELHEQQKLSIVPFVESASVLATLWQAGATYIQGYYLQGPSQAMDYDFSSGDE
notes: also called dimeric FimX; purified FimX; source: purified as 6X-His tagged protein as described previously [17]
Consider B3, for which the “stoichiometry N” value in series [2] was found to be 2.
